Patent US20230265179A1 (TWIST BIOSCIENCE, published 2023)

T1: IL1RL1 (UniProt Q01638 19-328, limits assumed)
T1 construct: SPR analyte
T1 sequence (looked up): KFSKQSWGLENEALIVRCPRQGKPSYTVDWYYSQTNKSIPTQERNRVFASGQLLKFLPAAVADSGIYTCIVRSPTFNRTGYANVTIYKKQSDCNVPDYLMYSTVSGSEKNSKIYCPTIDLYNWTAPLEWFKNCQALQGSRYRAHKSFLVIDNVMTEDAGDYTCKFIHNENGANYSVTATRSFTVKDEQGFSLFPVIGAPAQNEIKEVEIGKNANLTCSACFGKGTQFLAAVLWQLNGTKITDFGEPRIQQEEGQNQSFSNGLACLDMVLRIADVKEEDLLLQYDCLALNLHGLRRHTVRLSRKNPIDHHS

T2: IL1RL1 over-expressed on Expi293 cells (UniProt Q01638 19-556, limits assumed)
T2 construct: whole, on cells; Target of the flow cytometry MFI ratio (over-expressing cells over parent cells); also called cytokine over-expressing Expi293 cells
T2 sequence (looked up): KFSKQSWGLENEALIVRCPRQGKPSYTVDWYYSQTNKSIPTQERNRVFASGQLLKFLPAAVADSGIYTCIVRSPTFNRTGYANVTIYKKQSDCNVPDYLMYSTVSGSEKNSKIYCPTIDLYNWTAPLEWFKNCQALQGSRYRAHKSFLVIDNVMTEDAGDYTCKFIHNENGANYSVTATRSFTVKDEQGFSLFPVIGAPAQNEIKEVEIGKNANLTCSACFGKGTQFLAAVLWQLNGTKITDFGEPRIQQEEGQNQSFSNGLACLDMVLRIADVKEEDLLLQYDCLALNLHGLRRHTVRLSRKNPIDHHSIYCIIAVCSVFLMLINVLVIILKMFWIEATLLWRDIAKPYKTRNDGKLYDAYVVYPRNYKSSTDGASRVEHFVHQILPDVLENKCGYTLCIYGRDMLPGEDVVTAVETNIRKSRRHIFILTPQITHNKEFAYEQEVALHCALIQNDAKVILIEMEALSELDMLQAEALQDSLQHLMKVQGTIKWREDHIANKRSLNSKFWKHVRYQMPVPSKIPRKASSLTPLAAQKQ

T3: IL1RL2 over-expressed on Expi293 cells (UniProt Q9HB29 20-575, limits assumed)
T3 construct: whole, on cells; Target of the flow cytometry assay; MFI ratio is over-expressing cells over parent cells
T3 sequence (looked up): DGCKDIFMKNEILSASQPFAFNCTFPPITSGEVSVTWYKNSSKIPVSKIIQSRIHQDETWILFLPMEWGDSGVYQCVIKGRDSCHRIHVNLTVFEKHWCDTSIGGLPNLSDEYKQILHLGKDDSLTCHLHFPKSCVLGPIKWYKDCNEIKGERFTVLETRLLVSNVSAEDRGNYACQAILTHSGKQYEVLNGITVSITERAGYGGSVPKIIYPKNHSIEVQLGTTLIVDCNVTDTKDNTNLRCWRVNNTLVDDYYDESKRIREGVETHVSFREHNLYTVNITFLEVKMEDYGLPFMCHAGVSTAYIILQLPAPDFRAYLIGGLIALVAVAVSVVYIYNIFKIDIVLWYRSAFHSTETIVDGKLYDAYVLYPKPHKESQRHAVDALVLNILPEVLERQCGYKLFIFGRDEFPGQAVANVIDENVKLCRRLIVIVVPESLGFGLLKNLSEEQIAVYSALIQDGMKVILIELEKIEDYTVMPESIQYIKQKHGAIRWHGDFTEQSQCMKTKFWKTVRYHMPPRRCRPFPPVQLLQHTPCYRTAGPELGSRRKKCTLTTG

B1: IL1RL1-83 (Fc fusion, not shown: a dimerising Fc or GST)
VHH: EVQLVESGGGLVQPGGSLRLSCAASGRSISDYTMGWFRQAPGKEREFVAGIWSGGYTHYADSVKGRFTISADNSKNTAYLQMNSLKPEDTAVYYCAAVSSNSETFDWGQGTLVTVSS
notes: VHH-Fc on IgG2 Fc
B2: IL1RL1-54 (Fc fusion, not shown: a dimerising Fc or GST)
VHH: EVQLVESGGGLVQPGGSLRLSCAASGNIPPINAMGWFRQAPGKEREWVASISTSGSTITPYADSVKGRFTISADNSKNTAYLQMNSLKPEDTAVYYCAARSGWSGQYDWGQGTLVTVSS
notes: VHH-Fc on IgG2 Fc
B3: IL1RL1-78 (Fc fusion, not shown: a dimerising Fc or GST)
VHH: EVQLVESGGGLVQPGGSLRLSCAASGFTLDDYAMGWFRQAPGKEREEVAAISWIIGSTKYADSVKGRFTISADNSKNTAYLQMNSLKPEDTAVYYCAAIVYEEGVYRWDWGQGTLVTVSS
notes: VHH-Fc on IgG2 Fc
B4: IL1RL2-3 (VHH)
VHH: EVQLVESGGGLVQPGGSLRLSCAASGRTVSTMGWFRQAPGKEREWVSTITFNGDHTYYADSVKGRFTISADNSKNTAYLQMNSLKPEDTAVYYCAKAYSSSWPYFDYWGQGTLVTVSS
notes: VHH-Fc based on IgG2 Fc
B5: IL1RL1-73 (Fc fusion, not shown: a dimerising Fc or GST)
VHH: EVQLVESGGGLVQPGGSLRLSCAASGDISSIVAMGWFRQAPGKEREWVSSIGIAGTPTFYADSVKGRFTISADNSKNTAYLQMNSLKPEDTAVYYCAGRSIGVDDMPYVWGQGTLVTVSS
notes: VHH-Fc on IgG2 Fc
B6: IL1RL1-91 (Fc fusion, not shown: a dimerising Fc or GST)
VHH: EVQLVESGGGLVQPGGSLRLSCAASGGTFGSYAMGWFRQAPGKEREGVAAIYTGGITTYADSVKGRFTISADNSKNTAYLQMNSLKPEDTAVYYCAAFDGYSGSDWGQGTLVTVSS
B7: IL1RL1-47 (Fc fusion, not shown: a dimerising Fc or GST)
VHH: EVQLVESGGGLVQPGGSLRLSCAASGRTFSMGWFRQAPGKEREWVASISTSGSTITPYADSVKGRFTISADNSKNTAYLQMNSLKPEDTAVYYCAAQGSLYDDYDGLPIKYDWGQGTLVTVSS
notes: VHH-Fc on IgG2 Fc
B8: IL1RL1-57 (Fc fusion, not shown: a dimerising Fc or GST)
VHH: EVQLVESGGGLVQPGGSLRLSCAASGDIGSINSMGWFRQAPGKEREFLASVSWGFGSTYYADSVKGRFTISADNSKNTAYLQMNSLKPEDTAVYYCAVNRLLYYSSGYYQTSVDWGQGTLVTVSS
notes: VHH-Fc on IgG2 Fc
B9: IL1RL2-14 (VHH)
VHH: EVQLVESGGGLVQPGGSLRLSCAASGFTFSNYWMGWFRQAPGKEREFVATIPWSGAYTEYADSVKGRFTISADNSKNTAYLQMNSLKPEDTAVYYCAAANEYWVYVNPNRYTWGQGTLVTVSS
notes: VHH-Fc based on IgG2 Fc
B10: IL1RL2-49 (VHH)
VHH: EVQLVESGGGLVQPGGSLRLSCAASGFTFSTYWMGWFRQAPGKEREFVATIPWIGAHTEYADSVKGRFTISADNSKNTAYLQMNSLKPEDTAVYYCAEANEYWGYVNPNRYTWGPGTLVTVSH
notes: VHH-Fc based on IgG2 Fc
B11: IL1RL2-39 (VHH)
VHH: EVQLVESGGGLVQPGGSLRLSCAASGRAFSSTVMGWFRQAPGKEREFVAGIGWTDAYTEYADSVKGRFTISADNSKNTAYLQMNSLKPEDTAVYYCAAANEYWVYVNPNRYTWGQGTLVTVSS
notes: VHH-Fc based on IgG2 Fc
B12: IL1RL2-25 (VHH)
VHH: EVQLVESGGGLVQPGGSLRLSCAASGLPFNNVYMGWFRQAPGKEREFVAAVTWSGAYTEYADSVKGRFTISADNSKNTAYLQMNSLKPEDTAVYYCAAANEYWVYVNPNRYTWGQGTLVTVSS
notes: VHH-Fc based on IgG2 Fc
B13: IL1RL2-8 (VHH)
VHH: EVQLVESGGGLVQPGGSLRLSCAASGFTYSSNYMGWFRQAPGKEREFVAGISWTDAYTEYADSVKGRFTISADNSKNTAYLQMNSLKPEDTAVYYCAAANEYWVYVNPNRYTWGQGTLVTVSS
notes: VHH-Fc based on IgG2 Fc
B14: IL1RL1-49 (Fc fusion, not shown: a dimerising Fc or GST)
VHH: EVQLVESGGGLVQPGGSLRLSCAASGRTVTMGWFRQAPGKEREFVAGINWESGSTDYADSVKGRFTISADNSKNTAYLQMNSLKPEDTAVYYCAALALGTDQSSTFDWGQGTLVTVSS
notes: VHH-Fc on IgG2 Fc
B15: IL1RL2-4 (VHH)
VHH: EVQLVESGGGLVQPGGSLRLSCAASGFILREYNMGWFRQAPGKEREFVAAISPSAFTEYADSVKGRFTISADNSKNTAYLQMNSLKPEDTAVYYCAAANEYWVYVNPNRYTWGQGTLVTVSS
notes: VHH-Fc based on IgG2 Fc
B16: IL1RL2-54 (VHH)
VHH: EVQLVESGGGLVQPGGSLRLSCAASGRYFSDYNMGWFRQAPGKEREFVAAISPSAFTEYADSVKGRFTISADNSKNTAYLQMNSLKPEDTAVYYCAAANEYWVYVNPNRYTWGQGTLVTVSS
notes: VHH-Fc based on IgG2 Fc
B17: IL1RL1-88 (Fc fusion, not shown: a dimerising Fc or GST)
VHH: EVQLVESGGGLVQPGGSLRLSCAASGRTSHGYGGYGMGWFRQAPGKEREEVAAISSSGSSTVYADSVKGRFTISADNSKNTAYLQMNSLKPEDTAVYYCAAIAYEEGVYRWDWGQGTLVTVSS
notes: VHH-Fc on IgG2 Fc
B18: IL1RL1-89 (Fc fusion, not shown: a dimerising Fc or GST)
VHH: EVQLVESGGGLVQPGGSLRLSCAASGSIYSLVAMGWFRQAPGKEREAVAGIVSGGSTSYADSVKGRFTISADNSKNTAYLQMNSLKPEDTAVYYCAAVGGATTVTASEWDWGQGTLVTVSS
notes: VHH-Fc on IgG2 Fc
B19: IL1RL1-46 (Fc fusion, not shown: a dimerising Fc or GST)
VHH: EVQLVESGGGLVQPGGSLRLSCAASGFTFSDIAMGWFRQAPGKEREFVAAINWSGGSTKYADSVKGRFTISADNSKNTAYLQMNSLKPEDTAVYYCAYSGIGTDWGQGTLVTVSS
notes: VHH-Fc on IgG2 Fc
B20: IL1RL1-63 (Fc fusion, not shown: a dimerising Fc or GST)
VHH: EVQLVESGGGLVQPGGSLRLSCAASGRTLSSIYAMGWFRQAPGKEREGVAAIYSGGITTYADSVKGRFTISADNSKNTAYLQMNSLKPEDTAVYYCAAFDGYSGSDWGQGTLVTVSS

Experiments:
[1] = molecular target: T1, IL1RL1; assay: SPR (Carterra LSA), antibody amine-coupled, 1:1 model;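 further: HC30M sensor chip at 25 °C in HBS-TE, analyte at rising concentrations in buffer containing 0.5 mg/mL BSA, 5 min association then 15 min dissociation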
[2] = molecular target: T2, IL1RL1 over-expressed on Expi293 cells; assay: flow cytometry, 100 nM antibody, over-expressing Expi293 / parent cells
Description: (§1) All incubations and washes were in buffer containing PBS+1% BSA. MFI Ratio is defined by the mean fluorescence intensity (MFI) of the cytokine over-expressing Expi293 cell over the Expi293 parent cell. […] EC50 was calculated in GraphPad Prism.

[3] = molecular target: T3, IL1RL2 over-expressed on Expi293 cells; assay: flow cytometry, over-expressing Expi293 vs parent cells, 100 nM antibody;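 further: ratio is mean fluorescence intensity on over-expressing Expi293 cells divided by that measured on parental Expi293 cells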
Description: as §1

Binder	Kd [1] [nM]	koff [1] [s⁻¹]	kon [1] [M⁻¹ s⁻¹]	100 nM FACS (MFI Ratio) [2] [MFI ratio]	100 nM FACS (MFI Ratio) [3]
B1	1.2	0.00016	134000	628	–
B2	0.516	9.06e-05	176000	500	–
B3	1.36	0.000278	204000	475	–
B4	–	–	–	–	1.97
B5	2.06	0.000362	176000	463	–
B6	1.85	0.000261	141000	475	–
B7	4.73	0.00031	65600	467	–
B8	1.73	0.000364	211000	282	–
B9	–	–	–	–	42.1
B10	–	–	–	–	190
B11	–	–	–	–	15.3
B12	–	–	–	–	16.5
B13	–	–	–	–	12.8
B14	2.42	0.000673	277000	248	–
B15	–	–	–	–	15.7
B16	–	–	–	–	21.1
B17	0.529	0.000104	197000	339	–
B18	0.781	0.000388	496000	340	–
B19	3.06	0.000553	181000	300	–
B20	0.153	3.16e-05	207000	451	–
